The target of this experiment is FLAG-Cep85-6D (UniProt Q6P2H3). In words: co-IP.

Numbering of substitutions follows the chain as printed. Bounds are passed on as bounds.

B1: HA-Nek2A (enzyme)
chain: MPSRAEDYEVLYTIGTGSYGRCQKIRRKSDGKILVWKELDYGSMTEAEKQMLVSEVNLLRELKHPNIVRYYDRIIDRTNTTLYIVMEYCEGGDLASVITKGTKERQYLDEEFVLRVMTQLTLALKECHRRSDGGHTVLHRDLKPANVFLDGKQNVKLGDFGLARILNHDTSFAKTFVGTPYYMSPEQMNRMSYNEKSDIWSLGCLLYELCALMPPFTAFSQKELAGKIREGKFRRIPYRYSDELNEIITRMLNLKDYHRPSVEEILENPLIADLVADEQRRNLERRGRQLGEPEKSQDSSPVLSELKLKEIQLQERERALKAREERLEQKEQELCVRERLAEDKLARAENLLKNYSLLKERKFLSLASNPELLNLPSSVIKKKVHFSGESKENIMRSENSESQLTSKSKCKDLKKRLHAAQLRAQALSDIEKNYQLKSRQILGMR
In the case of B1, the percent reduction of affinity against Nek2A-4A turned out to be 50%.

B2: HA-Nek2A-4D (enzyme)
chain: B1 chain with S356D, S365D, S406D, S438D
In the case of B2, the percent reduction of affinity against Nek2A-4A is more than 60%.
